Test results as given in patent EP2133098A1 (Maxygen Holdings Ltd, dated 2009).
Numbering of substitutions follows the chain as printed. In names and notes the source's numbering stands. Each block holds one binder with its values, some of them ahead of it.

Key:
[1] = target: T1, human G-CSF receptor (human, UniProt Q99062 25-836); experiment: cell-based or functional assay
T1 sequence (looked up): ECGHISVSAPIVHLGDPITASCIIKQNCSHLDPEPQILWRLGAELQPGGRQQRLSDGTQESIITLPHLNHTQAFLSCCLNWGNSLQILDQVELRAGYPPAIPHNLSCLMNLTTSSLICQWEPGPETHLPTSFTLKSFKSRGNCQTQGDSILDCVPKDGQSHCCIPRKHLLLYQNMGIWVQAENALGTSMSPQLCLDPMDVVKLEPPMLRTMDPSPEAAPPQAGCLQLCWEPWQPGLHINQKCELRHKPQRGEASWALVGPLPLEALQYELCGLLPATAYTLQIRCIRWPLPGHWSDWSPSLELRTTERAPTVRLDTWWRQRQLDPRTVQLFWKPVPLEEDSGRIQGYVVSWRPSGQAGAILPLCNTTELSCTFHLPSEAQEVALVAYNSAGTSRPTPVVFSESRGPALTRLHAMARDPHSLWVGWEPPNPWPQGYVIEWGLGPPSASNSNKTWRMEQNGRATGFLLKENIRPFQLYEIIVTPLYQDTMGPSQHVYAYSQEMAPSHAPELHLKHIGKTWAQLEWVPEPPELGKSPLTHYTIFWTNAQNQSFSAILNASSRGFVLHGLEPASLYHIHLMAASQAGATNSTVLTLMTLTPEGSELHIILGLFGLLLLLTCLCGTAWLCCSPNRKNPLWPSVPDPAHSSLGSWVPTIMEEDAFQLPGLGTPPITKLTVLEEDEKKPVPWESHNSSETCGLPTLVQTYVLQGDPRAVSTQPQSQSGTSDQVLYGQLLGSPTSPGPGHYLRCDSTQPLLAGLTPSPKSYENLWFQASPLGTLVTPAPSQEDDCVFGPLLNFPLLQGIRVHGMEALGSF

[2] = target: T1, human G-CSF receptor; experiment: cell-based or functional assay; remark: listed apart in the source

- EC50, BaF3/hGCSF-R/pfos-lux luciferase assay [1]: 30 pM
B1: non-conjugated hG-CSF (Neupogen) (ligand)
chain: TPLGPASSLPQSFLLKCLEQVRKIQGDGAALQEKLCATYKLCHPEELVLLGHSLGIPWAPLSSCPSQALQLAGCLSQLHSGLFLYQGLLQALEGISPELGPTLDTLQLDVADFATTIWQQMEELGMAPALQPTQGAMPAFASAFQRRAGGVLVASHLQSFLEVSYRVLRHLAQP

- in vitro EC50 (% of non-conjugated hG-CSF (Neupogen)) [1]: 10 % of non-conjugated hG-CSF (Neupogen)
B2: SPA-PEG 12000-conjugated hG-CSF K16R K34R K40R (ligand)
chain: B1 chain with K16R, K34R, K40R
modifications: SPA-PEG 12000; mainly 2 and 3 PEG groups attached

- EC50 (% of hG-CSF) conjugated to SPA-PEG 5000 [2]: 10 % of hG-CSF
B3: SPA-PEG 5000-conjugated hG-CSF K16R K34R K40R Q70K Q90K Q120K (ligand)
chain: B1 chain with K16R, K34R, K40R, Q70K, Q90K, Q120K
modifications: SPA-PEG 5000 on the available PEGylation sites

- EC50 (% of hG-CSF) conjugated to SPA-PEG 5000 [2]: 15 % of hG-CSF
B4: SPA-PEG 5000-conjugated hG-CSF K16R K34R K40R Q70K Q120K (ligand)
chain: B1 chain with K16R, K34R, K40R, Q70K, Q120K
modifications: SPA-PEG 5000 on the available PEGylation sites

- EC50 (% of hG-CSF) conjugated to SPA-PEG 5000 [2]: 5 % of hG-CSF
B5: SPA-PEG 5000-conjugated hG-CSF K16R K34R K40R Q90K Q120K T133K (ligand)
chain: B1 chain with K16R, K34R, K40R, Q90K, Q120K, T133K
modifications: SPA-PEG 5000 on the available PEGylation sites

- EC50 (% of hG-CSF) conjugated to SPA-PEG 5000 [2]: 2 % of hG-CSF
B6: SPA-PEG 5000-conjugated hG-CSF K16R K34R K40R Q70K Q90K T105K (ligand)
chain: B1 chain with K16R, K34R, K40R, Q70K, Q90K, T105K
modifications: SPA-PEG 5000 on the available PEGylation sites

- EC50 (% of hG-CSF) conjugated to SPA-PEG 5000 [2]: 5 % of hG-CSF
B7: SPA-PEG 5000-conjugated hG-CSF K16R K34R K40R Q70K Q120K T133K (ligand)
chain: B1 chain with K16R, K34R, K40R, Q70K, Q120K, T133K
modifications: SPA-PEG 5000 on the available PEGylation sites

- in vitro EC50 (% of non-conjugated hG-CSF (Neupogen)) [1]: 1 % of non-conjugated hG-CSF (Neupogen)
B8: SPA-PEG 20000-conjugated hG-CSF K16R K34R K40R (ligand)
chain: B1 chain with K16R, K34R, K40R
modifications: SPA-PEG 20000

- in vitro EC50 (% of non-conjugated hG-CSF (Neupogen)) [1]: 35 % of non-conjugated hG-CSF (Neupogen)
B9: SPA-PEG 5000-conjugated hG-CSF K16R K34R K40R (ligand)
chain: B1 chain with K16R, K34R, K40R
modifications: SPA-PEG 5000 on the available PEGylation sites
